Data: US20130157945A1 (NEW YORK UNIVERSITY SCHOOL OF MEDICINE, published 2013)

Columns and labels:
[1] = target: T1, TNFR1 (as used in the surface plasmon resonance assays) (UniProt P19438 30-211, limits assumed); test: surface plasmon resonance, KD against that of TNFα/TNFR1
T1 sequence (looked up): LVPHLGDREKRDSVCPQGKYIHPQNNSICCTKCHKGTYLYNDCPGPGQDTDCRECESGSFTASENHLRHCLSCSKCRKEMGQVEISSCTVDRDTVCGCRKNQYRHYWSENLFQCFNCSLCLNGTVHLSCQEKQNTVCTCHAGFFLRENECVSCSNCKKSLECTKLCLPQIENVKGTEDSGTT

[2] = target: T2, TNFR2 (as used in the surface plasmon resonance assays) (UniProt P20333 23-257, limits assumed); test: surface plasmon resonance, KD against that of TNFα/TNFR2
T2 sequence (looked up): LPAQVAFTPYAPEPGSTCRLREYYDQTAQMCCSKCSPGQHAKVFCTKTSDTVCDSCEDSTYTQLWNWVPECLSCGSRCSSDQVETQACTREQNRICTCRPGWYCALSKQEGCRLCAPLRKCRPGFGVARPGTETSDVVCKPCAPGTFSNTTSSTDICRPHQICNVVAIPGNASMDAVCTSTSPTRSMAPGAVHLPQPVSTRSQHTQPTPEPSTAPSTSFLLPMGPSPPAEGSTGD

[3] = target: T2, TNFR2 (as used in the surface plasmon …); test: surface plasmon resonance
[4] = target: T1, TNFR1 (as used in the surface plasmon …); test: surface plasmon resonance
[5] = target: T1, TNFR1 (as used in the surface plasmon …); test: surface plasmon resonance (SensiQ Pioneer, FastStep kinetic assay)
[6] = target: T3, Atsttrin (yeast two-hybrid construct in pDBleu) (human, UniProt P04386 1-147 (Saccharomyces cerevisiae entry), limits assumed); test: yeast two-hybrid, β-galactosidase assay
T3 construct: domain: Gal4 DBD; also called ½A+P3+P4+½C+P5+½F; ½F-P3-P4-½A-P5-½C

B1: Atsttrin (recombinant, released from GST-Atsttrin by factor Xa) (peptide)
chain: PQASCCEDRVHCCPHGAFCDLVHTRCITPTGTHPLAKKLPAQRTNRAVALSSSASSKENATTDLLTKLPAHTVGDVKCDMEVSCPDGYTCCRLQSGAWPWCEQGPHQVPWMEKAPAHLSLPDPQALKRDVPCDNVSSCPSSDTCCQLTSGEWGCCPIP
notes: Expressed in bacteria as GST fusion, cleaved with factor Xa; also called Antagonist of TNF/TNFR Signaling via Targeting TNF Receptors; purified Atsttrin
fold lower affinity than TNFα [1]: ~18 fold | fold higher binding affinity than TNFα [2]: ~9 fold | Kd [3]: 85.9 nM | Kd [4]: 160 nM

B2: recombinant GEP (granulin/epithelin precursor) (ligand)
chain: TRCPDGQFCPVACCLDPGGASYSCCRPLLDKWPTTLSRHLGGPCQVDAHCSAGHSCIFTVSGTSSCCPFPEAVACGDGHHCCPRGFHCSADGRSCFQRSGNNSVGAIQCPDSQFECPDFSTCCVMVDGSWGCCPMPQASCCEDRVHCCPHGAFCDLVHTRCITPTGTHPLAKKLPAQRTNRAVALSSSVMCPDARSRCPDGSTCCELPSGKYGCCPMPNATCCSDHLHCCPQDTVCDLIQSKCLSKENATTDLLTKLPAHTVGDVKCDMEVSCPDGYTCCRLQSGAWGCCPFTQAVCCEDHIHCCPAGFTCDTQKGTCEQGPHQVPWMEKAPAHLSLPDPQALKRDVPCDNVSSCPSSDTCCQLTSGEWGCCPIPEAVCCSDHQHCCPQRYTCVAEGQCQRGSEIVAGLEKMPARRGSLSHPRDIGCDQHTSCPVGGTCCPSQGGSWACCQLPHAVCCEDRQHCCPAGYTCNVKARSCEKEVVSAQPATFLARSPHVGVKDVECGEGHFCHDNQTCCRDNRQGWACCPYAQGVCCADRRHCCPAGFRCARRGTKCLRREAPRWDAPLRDPALRQLL
notes: also called purified GEP; PGRN
Kd [5]: 1.58 nM | koff [5]: 0.000814 s⁻¹ | kon [5]: 516000 M⁻¹ s⁻¹

B3: FAS (yeast two-hybrid plasmid of Example 9) (receptor, UniProt P25445 26-173, looked up)
chain: QVTDINSKGLELRKTVTTVETQNLEGLHHDGQFCHKPCPPGERKARDCTVNGDEPDCVPCQEGKEYTDKAHFSSKCRRCRLCDEGHGLEVEINCTRTQNTKCRCKPNFFCNSTVCEHCDPCTKCEHGIIKECTLTSNTKCKEEGSRSN
binding result [6]: no binding

B4: RANK (yeast two-hybrid plasmid of Example 9) (receptor, UniProt Q9Y6Q6 30-212, looked up)
chain: IAPPCTSEKHYEHLGRCCNKCEPGKYMSSKCTTTSDSVCLPCGPDEYLDSWNEEDKCLLHKVCDTGKALVAVVAGNSTTPRRCACTAGYHWSQDCECCRRNTECAPGLGAQHPLQLNKDTVCKPCLAGYFSDAFSSTDKCRPWTNCTFLGKRVEHHGTEKSDAVCSSSLPARKPPNEPHVYLP
binding result [6]: no binding
